This note sets out measurements from patent publication US20120141482A1.

Values joined by “and” are separate entries in the source; they are usually repeats but may differ in a detail not shown here. Equal values may be shown once.

The target in assay [1] is SIY/H-2 K^bm3 complex. Briefly: cell-based or functional assay.
Assay [2] addresses SIY/H-2 K^b complex (mouse) (UniProt P01901). Briefly: cell-based or functional assay.
Assay [3] concerns the target p2Ca/H-2 L^d complex (mouse) (UniProt P01897). Briefly: cell-based or functional assay.
The target of assay [4] is dEV-8/H-2 K^bm3 complex. Nature of the assay: cell-based or functional assay.
Assay [5] deals with serologically reactive H-2 L^d on RENCA cells (mouse) (UniProt P01897). Briefly: flow cytometry on RENCA cells stimulated with 5-50 units/ml γ-IFN. For orientation: In flow cytometry, cells or beads pass a laser one at a time.
serologically reactive H-2 L^d on RENCA cells (mouse), sequence (P01897 25-362): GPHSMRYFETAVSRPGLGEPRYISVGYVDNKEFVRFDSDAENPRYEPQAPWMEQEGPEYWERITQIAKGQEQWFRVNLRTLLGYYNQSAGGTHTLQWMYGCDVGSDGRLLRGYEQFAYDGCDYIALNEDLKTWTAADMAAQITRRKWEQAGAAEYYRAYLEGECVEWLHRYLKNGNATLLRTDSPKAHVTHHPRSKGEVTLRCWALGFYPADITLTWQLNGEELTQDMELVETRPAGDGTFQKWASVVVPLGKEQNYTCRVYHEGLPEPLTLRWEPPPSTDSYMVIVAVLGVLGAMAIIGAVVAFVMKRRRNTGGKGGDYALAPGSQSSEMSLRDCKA
For assay [6], the target named is p2Ca/H-2 L^d complex (mouse) (UniProt P01897). Briefly: flow cytometry on L^d cells loaded with graded peptide concentrations; highest value.
p2Ca/H-2 L^d complex (mouse), sequence (P01897 25-309, one chain of several): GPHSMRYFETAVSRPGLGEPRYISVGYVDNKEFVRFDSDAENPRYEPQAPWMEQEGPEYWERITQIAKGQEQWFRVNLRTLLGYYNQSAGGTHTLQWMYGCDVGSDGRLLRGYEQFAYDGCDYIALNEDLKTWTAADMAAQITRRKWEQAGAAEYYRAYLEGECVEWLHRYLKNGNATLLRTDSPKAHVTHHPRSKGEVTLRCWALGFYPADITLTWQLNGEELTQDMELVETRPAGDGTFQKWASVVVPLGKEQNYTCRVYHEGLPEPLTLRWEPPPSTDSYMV
For assay [7], the target named is QL9/H-2 L^d complex (mouse) (UniProt P01897). The description is as above.
QL9/H-2 L^d complex (mouse), sequence (P01897 25-309, one chain of several): as above
For assay [8], the target named is unloaded H-2 L^d molecules on RMA-S L^d cells (mouse) (UniProt P01897). Briefly: direct flow cytometry on RMA-S L^d cells without peptide.
unloaded H-2 L^d molecules on RMA-S L^d cells (mouse), sequence (P01897 25-309): as the sequence (P01897 25-309, one chain of several) above
For assay [9], the target named is serologically reactive H-2 L^d on RENCA cells (mouse) (UniProt P01897). Nature of the assay: flow cytometry on unstimulated RENCA cells.
The target of assay [10] is QL9/H-2 L^d complex (mouse) (UniProt P01897). Nature of the assay: flow cytometry, serial dilutions on QL9-loaded RMA-S L^d cells, detected with H57-FITC.
Assay [11] shares this target. Briefly: direct flow cytometry on peptide-loaded L^d cells.
Assay [12] deals with SIY/H-2 K^bm3 complex. Nature of the assay: flow cytometry on peptide-loaded T2 K^bm3 cells.
For assay [13], the target named is unloaded H-2 L^d molecules on RMA-S L^d cells (mouse) (UniProt P01897). Briefly: direct flow cytometry on RMA-S L^d cells, unloaded (background).
Assay [14] concerns the target SL9/H-2 L^d complex (mouse) (UniProt P01897). Nature of the assay: direct flow cytometry on peptide-loaded RMA-S L^d cells.
Assay [15] addresses pVSV/H-2 K^b complex (mouse) (UniProt P01901). Nature of the assay: flow cytometry on T2 K^b cells, control peptide (background).
For assay [16], the target named is H-2 L^d loaded with an irrelevant H-2 L^d binding peptide (mouse) (UniProt P01897). Nature of the assay: direct flow cytometry on RMA-S L^d cells, irrelevant peptide (background).
H-2 L^d loaded with an irrelevant H-2 L^d binding peptide (mouse), sequence (P01897 25-309): as the sequence (P01897 25-309, one chain of several) above
Assay [17] concerns the target SIY/H-2 K^b complex (mouse) (UniProt P01901). Briefly: flow cytometry on peptide-loaded T2 K^b cells.
The target in assay [18] is p2Ca/H-2 L^d complex (mouse) (UniProt P01897). Nature of the assay: flow cytometry competition with constant FITC-30.5.7 Fab on peptide-loaded RMA-S L^d cells.
Assay [19] shares this target. Briefly: flow cytometry, serial dilutions on p2Ca-loaded RMA-S L^d cells, detected with H57-FITC.
The target of assay [20] is TCR of 5KC, a moth cytochrome C (MCC)-specific, I-E^k-restricted T cell hybridoma. Briefly: flow cytometry on 5KC hybridoma cells; reference cells without primary reagent.
Assay [21] has the same target. Briefly: flow cytometry on 5KC hybridoma cells.
The target is the same in assay [22]. Briefly: cell-based or functional assay.
Assay [23] addresses p2Ca/H-2 L^d complex (mouse) (UniProt P01897). Briefly: flow cytometry competition with FITC-30.5.7 Fab on peptide-loaded RMA-S L^d cells.

2C TCR on 2C CTL, sequence (A2KF29 whole entry): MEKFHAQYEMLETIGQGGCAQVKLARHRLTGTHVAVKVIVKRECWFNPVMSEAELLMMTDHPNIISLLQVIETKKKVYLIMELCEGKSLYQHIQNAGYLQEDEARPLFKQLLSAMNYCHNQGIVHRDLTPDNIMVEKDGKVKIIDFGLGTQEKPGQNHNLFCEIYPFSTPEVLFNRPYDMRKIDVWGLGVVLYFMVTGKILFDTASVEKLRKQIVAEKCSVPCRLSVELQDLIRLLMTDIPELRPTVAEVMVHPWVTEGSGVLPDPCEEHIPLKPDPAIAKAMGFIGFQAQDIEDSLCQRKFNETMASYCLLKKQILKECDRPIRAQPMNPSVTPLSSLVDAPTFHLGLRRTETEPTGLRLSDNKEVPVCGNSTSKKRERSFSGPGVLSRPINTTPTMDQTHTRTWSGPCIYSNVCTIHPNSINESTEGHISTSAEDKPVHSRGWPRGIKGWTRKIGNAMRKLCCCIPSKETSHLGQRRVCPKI
SIY/H-2 K^b complex (mouse), sequence (P01901 22-369, one chain of several): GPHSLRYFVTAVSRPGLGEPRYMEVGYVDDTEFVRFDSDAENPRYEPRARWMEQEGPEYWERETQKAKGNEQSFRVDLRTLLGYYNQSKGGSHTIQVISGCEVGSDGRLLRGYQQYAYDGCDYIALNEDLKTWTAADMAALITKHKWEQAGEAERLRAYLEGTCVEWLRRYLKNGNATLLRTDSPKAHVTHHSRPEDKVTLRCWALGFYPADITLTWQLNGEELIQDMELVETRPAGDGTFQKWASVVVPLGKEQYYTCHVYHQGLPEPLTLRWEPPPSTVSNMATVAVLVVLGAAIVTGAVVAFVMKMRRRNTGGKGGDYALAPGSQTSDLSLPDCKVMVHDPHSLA
SL9/H-2 L^d complex (mouse), sequence (P01897 25-309, one chain of several): as the sequence (P01897 25-309, one chain of several) above
pVSV/H-2 K^b complex (mouse), sequence (P01901 22-369, one chain of several): as the sequence (P01901 22-369, one chain of several) above

As for 2C TCR on 2C CTL (from UniProt A2KF29), the 2C CTL mediated lysis, LD50 (peptide concentration) was 100 ng/mL in assay [1]; 10 ng/mL in assay [2]; 0.5 ng/mL and 1 ng/mL in [4]. The substance further had a 2C CTL mediated lysis of p2Ca-loaded T2 L^d cells, LD50 (peptide concentration) in assay [3] of 0.5 ng/mL.

In the case of mAb 30.5.7 (antibody), the MCF is 2670 to 3040 MCF in assay [5], 3000 MCF in [6], 3000 MCF in assay [7] and 500 MCF in assay [9]. In addition, in assay [8], the fold increase of mean channel fluorescence, cells at 27° C. against 37° C. is 5 fold.

In the case of “soluble divalent 2C TCR/Ig (from UniProt A2KF29)”, the lowest concentration at which binding was detected in [10] was < 1 nM. Besides, the MCF in assay [11] came out at 3000 MCF; in [12], 36 MCF; in assay [13], 10 MCF; in [14], 100 MCF; in assay [15], 14 MCF; in assay [16], 10 MCF. The MCF was found to be 600 MCF in [6] and 276 MCF in assay [17]. For the same substance, the Kapp in assay [18] came to 108 nM. For the same substance, the concentration required to detect binding in assay [19] amounted to 3 nM.

As to “soluble divalent ^MCCI-E^k/IgG (peptide-MHC)”, in assay [20], the fold increase of mean channel fluorescence worked out at 15 fold. In assay [21], this substance came in with a lowest concentration at which specific staining was seen of 5 nM and a mean channel fluorescence of 300 MCF. Besides, in [22], the IL-2 production, fold stimulation over anti-CD3 mAb at 92 ng/ml worked out at 10 fold.

On to “soluble monovalent 2C TCR (from UniProt A2KF29)”, for which the concentration required to detect binding in assay [10] was > 100 nM; in [19], > 3000 nM. Besides, the Kd in assay [23] was > 2 µM. Moreover, the Kapp in assay [18] is > 2000 nM.

Broadly, the Kd is the free concentration of one partner at which half of the binding sites on the other are occupied at equilibrium, for simple one-to-one binding.
